# Measurements: the Human Domainome abundance scans (Beltran et al. 2025)
# ± gives the uncertainty stated by the source.
# B1: Pituitary-specific positive transcription factor 1, residues 130 to 198; numbered along this chain, P28069 (parent)
# chain: RELEKFANEFKVRRIKLGYTQTNVGEALAAVHGSEFSQTTICRFENLQLSFKNACKLKAILSKWLEEAE
# Variants of: B1
# Test: abundance fitness (aPCA) (normalised: wild type 0, dead -1); higher = more abundant; growth selection in yeast, the domain comes from the species named
# Settings: Homo sapiens
row,Variant,abundance fitness
1,K16A,-0.08 ± 0.092
2,L28A,-0.799 ± 0.23
3,K11R,-0.021 ± 0.051
4,K11L,-0.973 ± 0.2
5,K11I,-0.458 ± 0.15
6,K11Q,-0.507 ± 0.064
7,K11W,-0.911 ± 0.28
8,N46T,-0.579 ± 0.12
9,N46K,-0.266 ± 0.11
10,N46D,-0.112 ± 0.098
11,N46Y,-0.732 ± 0.35
12,N46C,-0.787 ± 0.42
13,N46A,-0.15 ± 0.1
14,E66C,-0.108 ± 0.077
15,E66F,-0.242 ± 0.11
16,E66W,-0.562 ± 0.17
17,E66H,-0.334 ± 0.29
18,E66A,-0.054 ± 0.069
19,R14S,-0.995 ± 0.2
20,R14M,-0.645 ± 0.19
21,R14N,-0.897 ± 0.35
22,R14P,-0.781 ± 0.27
23,F10K,-0.721 ± 0.49
24,F10I,-0.963 ± 0.39

row,Variant,abundance fitness
1,F10S,-0.544 ± 0.086
2,F10N,-0.59 ± 0.31
3,F10P,-0.931 ± 0.39
4,F10C,-0.923 ± 0.39
5,F10M,-0.621 ± 0.2
6,F10Q,-0.434 ± 0.12
7,F10H,-0.762 ± 0.34
8,R13N,-0.618 ± 0.44
9,R13S,-0.924 ± 0.26
10,C55I,0.046 ± 0.12
11,C55D,0.188 ± 0.34
12,C55R,-0.294 ± 0.094
13,C55S,0.024 ± 0.062
14,R1E,-0.348 ± 0.48
15,R1I,-0.508 ± 0.15
16,R1F,-0.128 ± 0.23
17,R1M,-0.712 ± 0.26
18,R1V,-0.441 ± 0.14
19,R1K,0.376 ± 0.14
20,R1T,-0.371 ± 0.19
21,V24G,-0.753 ± 0.18
22,V24A,-0.728 ± 0.26
23,V24M,-0.851 ± 0.26
24,A68I,0.128 ± 0.45

row,Variant,abundance fitness
1,A68G,-0.664 ± 0.15
2,A68L,-0.778 ± 0.17
3,A68E,-0.003 ± 0.063
4,A68D,-0.78 ± 0.34
5,A68M,-0.061 ± 0.084
6,E69F,-0.616 ± 0.32
7,E69V,-0.874 ± 0.29
8,E69L,-0.719 ± 0.28
9,E69A,-0.436 ± 0.12
10,E45C,-0.763 ± 0.2
11,E45R,-0.987 ± 0.18
12,E45D,-0.991 ± 0.31
13,E45F,-0.878 ± 0.17
14,E45G,-0.961 ± 0.17
15,E45T,-0.821 ± 0.13
16,E45L,-0.883 ± 0.14
17,L47P,-0.804 ± 0.25
18,L47E,-0.635 ± 0.16
19,L47N,0.187 ± 0.065
20,L47M,0.263 ± 0.082
21,L47D,-0.689 ± 0.15
22,L47S,-0.168 ± 0.072
23,A54G,-0.295 ± 0.18
24,A54R,-0.974 ± 0.37

row,Variant,abundance fitness
1,A54M,0.358 ± 0.08
2,A54Y,-0.333 ± 0.16
3,E4T,-0.249 ± 0.074
4,E4A,0.043 ± 0.084
5,E4C,-0.552 ± 0.21
6,E4F,-0.316 ± 0.087
7,E4I,-0.145 ± 0.069
8,E4M,-0.451 ± 0.21
9,E4D,-0.612 ± 0.32
10,V31E,-0.013 ± 0.072
11,V31D,-0.462 ± 0.1
12,V31F,-0.34 ± 0.16
13,V31N,-0.389 ± 0.078
14,V31W,-0.392 ± 0.09
15,V31R,-0.053 ± 0.052
16,S50T,-0.206 ± 0.082
17,S50G,0.035 ± 0.042
18,S50D,0.162 ± 0.093
19,H32Y,0.276 ± 0.14
20,F44N,-1.11 ± 0.38
21,F44Q,-0.885 ± 0.28
22,A7T,-0.356 ± 0.17
23,A7I,0.162 ± 0.11
24,A30M,-0.261 ± 0.075

row,Variant,abundance fitness
1,A30G,-0.298 ± 0.054
2,A30L,-0.217 ± 0.067
3,A30I,-0.309 ± 0.15
4,N23C,-0.184 ± 0.16
5,N23A,0.267 ± 0.074
6,N23E,0.352 ± 0.073
7,N23Q,0.347 ± 0.18
8,N23V,-0.27 ± 0.08
9,N23F,0.145 ± 0.095
10,E67N,-0.134 ± 0.099
11,E67K,-0.18 ± 0.11
12,L17Y,-0.858 ± 0.47
13,L17C,-0.613 ± 0.11
14,L17N,-0.729 ± 0.23
15,L17W,-0.638 ± 0.11
16,L17H,-0.497 ± 0.29
17,L3T,-0.867 ± 0.4
18,L3C,-0.953 ± 0.44
19,L3K,-0.718 ± 0.26
20,L3E,-0.725 ± 0.29
21,L3G,-0.571 ± 0.11
22,L3S,-0.855 ± 0.19
23,F51L,-0.19 ± 0.063
24,F51P,-0.142 ± 0.078

row,Variant,abundance fitness
1,F51E,0.144 ± 0.13
2,R43E,0.119 ± 0.097
3,R43N,-0.085 ± 0.1
4,R43P,-0.855 ± 0.11
5,R43Q,0.11 ± 0.12
6,R43Y,-0.846 ± 0.47
7,W64S,-0.722 ± 0.2
8,W64L,-0.795 ± 0.27
9,W64C,-0.164 ± 0.15
10,W64A,-0.496 ± 0.18
11,S62R,-0.377 ± 0.071
12,S62W,-0.009 ± 0.053
13,S62N,-0.438 ± 0.088
14,S62C,-0.3 ± 0.062
15,S62V,-0.167 ± 0.064
16,L65E,-0.779 ± 0.16
17,L65M,-0.374 ± 0.075
18,L65S,-0.636 ± 0.093
19,L65I,0.105 ± 0.2
20,L65G,-0.791 ± 0.14
21,L65F,-0.884 ± 0.25
22,L57R,-0.584 ± 0.079
23,L57Y,-0.156 ± 0.12
24,L57F,-0.126 ± 0.077

row,Variant,abundance fitness
1,L57S,-0.534 ± 0.08
2,L57C,-0.228 ± 0.086
3,L57N,-0.72 ± 0.12
4,F36P,-0.702 ± 0.16
5,F36I,0.128 ± 0.14
6,F36G,-1.05 ± 0.2
7,F36K,-0.744 ± 0.13
8,K52R,-0.04 ± 0.061
9,K52C,-0.753 ± 0.49
10,K52I,-0.463 ± 0.27
11,K52Y,0.057 ± 0.11
12,K52Q,0.022 ± 0.098
13,K52E,0.108 ± 0.086
14,I15R,-0.083 ± 0.055
15,I15A,-0.173 ± 0.085
16,I15Y,-0.761 ± 0.16
17,I15H,-0.393 ± 0.093
18,I15D,-0.89 ± 0.26
19,I15K,-0.054 ± 0.073
20,K63Q,-0.157 ± 0.11
21,K63P,-0.303 ± 0.082
22,K63G,-0.153 ± 0.059
23,K63I,-0.326 ± 0.094
